The values below come from patent publication WO2005092925A2.

Targets include human FcRn (human) (UniProt P55899); human FcγRIIb (human) (UniProt P31994); human FcγRI (human) (UniProt P12314); human FcγRIIc (human) (UniProt P31995).
Holding throughout (assay): AlphaScreen
The target in assay [1] is human FcγRIIa H131 (human) (UniProt P12318).
For assay [2], the target named is human V158 FcγRIIIa, extracellular region fused with GST (human) (UniProt P08637).
Sequence of UniProt P08637 (P08637 17-208 F176V): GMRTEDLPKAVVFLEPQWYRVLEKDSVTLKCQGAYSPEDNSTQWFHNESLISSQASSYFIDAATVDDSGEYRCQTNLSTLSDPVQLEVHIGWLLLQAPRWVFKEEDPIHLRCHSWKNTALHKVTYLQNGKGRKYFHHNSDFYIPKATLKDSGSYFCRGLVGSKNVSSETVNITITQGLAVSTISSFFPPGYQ

Sequence of UniProt P12314 (P12314 16-288 limits assumed): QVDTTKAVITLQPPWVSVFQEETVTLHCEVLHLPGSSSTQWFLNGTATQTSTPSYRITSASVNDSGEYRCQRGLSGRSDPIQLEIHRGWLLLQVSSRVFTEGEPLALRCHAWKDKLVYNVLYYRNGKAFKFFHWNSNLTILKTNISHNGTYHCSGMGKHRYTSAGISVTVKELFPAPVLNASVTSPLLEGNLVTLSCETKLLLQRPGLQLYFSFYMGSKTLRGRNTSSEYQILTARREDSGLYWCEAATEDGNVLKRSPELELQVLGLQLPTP
Sequence of UniProt P31994 (P31994 43-217 limits assumed): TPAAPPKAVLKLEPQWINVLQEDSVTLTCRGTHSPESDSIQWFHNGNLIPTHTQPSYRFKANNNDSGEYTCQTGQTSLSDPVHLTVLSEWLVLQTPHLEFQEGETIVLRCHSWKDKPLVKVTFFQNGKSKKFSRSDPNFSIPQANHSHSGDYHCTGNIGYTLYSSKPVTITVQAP
Sequence of UniProt P31995 (P31995 43-217 limits assumed): as the sequence (P31994 43-217 limits assumed) above
Sequence of UniProt P12318 (P12318 36-218 limits assumed): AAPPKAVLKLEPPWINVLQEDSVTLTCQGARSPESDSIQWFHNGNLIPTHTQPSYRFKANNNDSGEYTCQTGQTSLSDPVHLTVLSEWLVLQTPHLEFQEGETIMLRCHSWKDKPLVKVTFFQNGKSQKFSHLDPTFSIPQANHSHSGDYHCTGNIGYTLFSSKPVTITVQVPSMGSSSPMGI
Sequence of UniProt P55899 (P55899 24-297 limits assumed): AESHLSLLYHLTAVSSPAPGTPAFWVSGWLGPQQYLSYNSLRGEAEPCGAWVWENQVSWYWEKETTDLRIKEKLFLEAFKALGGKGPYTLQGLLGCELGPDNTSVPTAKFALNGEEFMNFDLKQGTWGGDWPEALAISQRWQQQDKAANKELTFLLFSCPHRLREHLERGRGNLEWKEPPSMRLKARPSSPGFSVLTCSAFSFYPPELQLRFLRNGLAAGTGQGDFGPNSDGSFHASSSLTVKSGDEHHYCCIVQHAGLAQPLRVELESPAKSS

Consider Campath L235R (antibody), for which the Fold WT came to 0.71 fold in assay [1]; 0.62 fold in assay [2]; 0.53 fold with human FcRn (human); 1.93 fold in the assay with human FcγRIIb (human); 0.35 fold in the assay with human FcγRI (human); 1.15 fold with human FcγRIIc (human).
With Campath L235W (antibody), the Fold WT in assay [1] stood at 0.9 fold; in assay [2] it was 0.32 fold; with human FcRn (human), 0.46 fold; in the assay with human FcγRIIb (human), 0.77 fold; in the assay with human FcγRI (human), 0.11 fold; with human FcγRIIc (human), 0.5 fold.
On to Campath P228G (antibody), for which the Fold WT amounted to 2.6 fold in assay [1]; 0.98 fold in assay [2]; 1.77 fold in the assay with human FcRn (human); 0.96 fold with human FcγRIIb (human); 1 fold in the assay with human FcγRI (human); 0.54 fold with human FcγRIIc (human).
Turning to Campath P228K (antibody), the Fold WT in assay [1] came to 1.31 fold; in assay [2], 1.28 fold; in the assay with human FcRn (human) it was 1.55 fold; in the assay with human FcγRIIb (human), 1.14 fold; with human FcγRI (human), 1.91 fold; in the assay with human FcγRIIc (human), 1.13 fold.
In the case of Campath P228Y (antibody), the Fold WT was 1.68 fold in assay [1]; 0.75 fold in assay [2]; 1.45 fold in the assay with human FcRn (human); 1.59 fold in the assay with human FcγRIIb (human); 1.15 fold with human FcγRI (human); 1.61 fold in the assay with human FcγRIIc (human).
As to Campath P230G (antibody), the Fold WT turned out to be 0.99 fold in assay [1]; 0.48 fold in assay [2]; 1.16 fold with human FcRn (human); 1.13 fold in the assay with human FcγRIIb (human); 1.04 fold in the assay with human FcγRI (human); 0.75 fold with human FcγRIIc (human).
With Campath P230Y (antibody), the Fold WT in assay [1] was 0.4 fold; in assay [2], 0.56 fold; with human FcRn (human) it was 0.65 fold; with human FcγRIIb (human), 0.85 fold; in the assay with human FcγRI (human) it was 0.44 fold; in the assay with human FcγRIIc (human), 1.22 fold.
Take Campath P232E (antibody): the Fold WT in assay [1] turned out to be 0.8 fold; in assay [2] it was 1.51 fold; with human FcRn (human), 0.76 fold; with human FcγRIIb (human), 1.59 fold; with human FcγRI (human), 2.97 fold; with human FcγRIIc (human), 0.99 fold.
In the case of Campath P232K (antibody), the Fold WT in assay [1] was found to be 0.87 fold; in assay [2] it was 0.77 fold; with human FcRn (human), 1.56 fold; with human FcγRIIb (human), 0.85 fold; with human FcγRI (human), 0.7 fold; in the assay with human FcγRIIc (human) it was 0.61 fold.
Regarding Campath P232Y (antibody), the Fold WT in assay [1] came out at 1.51 fold; in assay [2], 0.99 fold; with human FcRn (human) it was 0.68 fold; with human FcγRIIb (human) it was 1.49 fold; in the assay with human FcγRI (human) it was 1.91 fold; with human FcγRIIc (human), 0.96 fold.
